pEC50: −log10 of the molar value.
Legend:
[1] = target: antibody-12/36-RLuc8 conjugate (Renilla reniformis); experiment: BRET competition, Fluorostar; 50 nM mAb-12/36-RLuc8, 200 nM FLAG-GFP^2 as competitor
[2] = target: antibody-CLICK-RLuc8 (anti-FLAG mAb-dPEG4-DBCO:RLuc8:dPEG8azide conjugate) (Renilla reniformis); experiment: BRET competition; 50 nM conjugate, 200 nM FLAG-GFP^2 as competitor, 1 µM FLAG peptide
[3] = target: antibody-CLICK-RLuc8 (anti-FLAG mAb-dPEG4-DBCO:RLuc8:dPEG8azide conjugate) (Renilla reniformis); experiment: BRET competition; 5 nM antibody-CLICK-RLuc8, 150 nM FLAG-GFP^2 as competitor, 100 nM FLAG peptide; same for every order of addition

Chain of antibody-CLICK-RLuc8 (anti-FLAG mAb-dPEG4-DBCO:RLuc8:dPEG8azide conjugate) (Renilla reniformis) (P27652 other isoform, or with tags, fused parts or gaps): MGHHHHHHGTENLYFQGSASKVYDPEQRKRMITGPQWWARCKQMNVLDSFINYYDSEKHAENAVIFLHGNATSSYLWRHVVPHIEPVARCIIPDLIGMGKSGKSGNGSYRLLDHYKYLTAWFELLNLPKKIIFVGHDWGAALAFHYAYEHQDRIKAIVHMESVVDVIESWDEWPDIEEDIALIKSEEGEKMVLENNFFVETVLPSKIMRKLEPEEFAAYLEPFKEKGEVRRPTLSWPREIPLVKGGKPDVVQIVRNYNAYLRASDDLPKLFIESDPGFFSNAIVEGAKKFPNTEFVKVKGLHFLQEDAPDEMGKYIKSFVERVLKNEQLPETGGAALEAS
Chain of antibody-12/36-RLuc8 conjugate (Renilla reniformis) (P27652 other isoform, or with tags, fused parts or gaps): as above

A pEC50 [1] of 6.56, a response to 1 µM FLAG peptide [2] of 45% and a decrease in the BRET ratio [3] of 22% were found for FLAG peptide (DYKDDDDK) in this work.

Reference: patent US20220268706A1
